Data reported in publication PMC4791394.

Molecular target: taxol-stabilized microtubules
Assay: co-sedimentation; normalized COS7 lysates in PEM buffer incubated with taxol-stabilized microtubules with 2.5 mM AMP-PNP, RT 30 min; 100,000 x g 40 min through a taxol-supplemented cushion; supernatant and pellet blotted for KIF5 and tubulin

| percent co-purified with microtubules [%] | Substance |
| --- | --- |
| 100 | KIF5C(1-560)^S176A-3xmCit (from UniProt P28738 1-560) (domain or fragment) |
| 60 | KIF5C(1-560)^S176D-3xmCit (from UniProt P28738 1-560) (domain or fragment) |
| 100 | KIF5C(1-560)^WT-3xmCit (from UniProt P28738 1-560) (domain or fragment) |
